# Laboratory results reported in the supplement of paper PMC10567573.
# B1: FUT8 (parent)
# chain: YAHQPRTADEIPMEPGDIIGVAGN
# Variants of: B1
# Assay: protein stability index of a GFP-peptide fusion (GPS, HEK-293T) (PSI 1-6); higher = more stable
# Settings: c terminus: a fixed tail appended
# 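Also: lentivirally expressed fusions sorted by FACS into six bins by GFP to DsRed ratio, PSI derived from sequencing read proportions per bin multiplied by bin number.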
row,Variant,protein stability index
1,YAHQPRTADEVPMEPGDIIGVAGN [I11V],4.55
2,YAHQPRTADELPMEPGDIIGVAGN [I11L],3.47
3,YAHQPRTADEKPMEPGDIIGVAGN [I11K],4.27
4,YAHQPRTADEMPMEPGDIIGVAGN [I11M],4.09
5,YAHQPRTADEQPMEPGDIIGVAGN [I11Q],4.46
6,YAHQPRTADEDPMEPGDIIGVAGN [I11D],4.65
7,YAHQPRTADEHPMEPGDIIGVAGN [I11H],4.06
8,YAHQPRTADERPMEPGDIIGVAGN [I11R],4.07
9,YAHQPRTADEWPMEPGDIIGVAGN [I11W],3.44
10,YAHQPRTADEYPMEPGDIIGVAGN [I11Y],3.93
11,YAHQPRTADESPMEPGDIIGVAGN [I11S],4.09
12,YAHQPRTADEAPMEPGDIIGVAGN [I11A],4.44
13,YAHQPRTADEPPMEPGDIIGVAGN [I11P],4.12
14,YAHQPRTADETPMEPGDIIGVAGN [I11T],4.2
15,YAHQPRTADECPMEPGDIIGVAGN [I11C],4.26
16,YAHQPRTADENPMEPGDIIGVAGN [I11N],4.26
17,YAHQPRTADEGPMEPGDIIGVAGN [I11G],3.98
18,YAHQPRTADEEPMEPGDIIGVAGN [I11E],4.37
19,YAHQPRTADEFPMEPGDIIGVAGN [I11F],3.71
20,YAHQPRTRDEIPMEPGDIIGVAGN [A8R],3.89
21,YAHQPRTCDEIPMEPGDIIGVAGN [A8C],3.44
22,YAHQPRTYDEIPMEPGDIIGVAGN [A8Y],3.15
23,YAHQPRTGDEIPMEPGDIIGVAGN [A8G],4.19
24,YAHQPRTVDEIPMEPGDIIGVAGN [A8V],3.77

row,Variant,protein stability index
1,YAHQPRTDDEIPMEPGDIIGVAGN [A8D],4.49
2,YAHQPRTIDEIPMEPGDIIGVAGN [A8I],4.02
3,YAHQPRTNDEIPMEPGDIIGVAGN [A8N],4.22
4,YAHQPRTLDEIPMEPGDIIGVAGN [A8L],3.43
5,YAHQPRTWDEIPMEPGDIIGVAGN [A8W],2.78
6,YAHQPRTQDEIPMEPGDIIGVAGN [A8Q],4.25
7,YAHQPRTTDEIPMEPGDIIGVAGN [A8T],4.24
8,YAHQPRTSDEIPMEPGDIIGVAGN [A8S],3.87
9,YAHQPRTEDEIPMEPGDIIGVAGN [A8E],4.4
10,YAHQPRTHDEIPMEPGDIIGVAGN [A8H],3.87
11,YAHQPRTKDEIPMEPGDIIGVAGN [A8K],3.88
12,YAHQPRTPDEIPMEPGDIIGVAGN [A8P],4.32
13,YAHQPRTMDEIPMEPGDIIGVAGN [A8M],3.74
14,YAHQPRTFDEIPMEPGDIIGVAGN [A8F],3.48
15,YAHQPRVADEIPMEPGDIIGVAGN [T7V],3.89
16,YAHQPRQADEIPMEPGDIIGVAGN [T7Q],4.25
17,YAHQPRRADEIPMEPGDIIGVAGN [T7R],3.9
18,YAHQPRSADEIPMEPGDIIGVAGN [T7S],4.12
19,YAHQPRYADEIPMEPGDIIGVAGN [T7Y],3.58
20,YAHQPRWADEIPMEPGDIIGVAGN [T7W],2.46
21,YAHQPRTADEIKMEPGDIIGVAGN [P12K],3.96
22,YAHQPRTADEIGMEPGDIIGVAGN [P12G],3.6
23,YAHQPRTADEIFMEPGDIIGVAGN [P12F],3.27
24,YAHQPRTADEIMMEPGDIIGVAGN [P12M],3.58

row,Variant,protein stability index
1,YAHQPRTADEIEMEPGDIIGVAGN [P12E],4.2
2,YAHQPRTADEINMEPGDIIGVAGN [P12N],3.73
3,YAHQPRTADEICMEPGDIIGVAGN [P12C],3.48
4,YAHQPRTADEIHMEPGDIIGVAGN [P12H],3.41
5,YAHQPRTADEILMEPGDIIGVAGN [P12L],3.57
6,YAHQPRTADEIAMEPGDIIGVAGN [P12A],4.23
7,YAHQPRTADEIIMEPGDIIGVAGN [P12I],3.27
8,YAHQPRTADEIDMEPGDIIGVAGN [P12D],4.2
9,YAHQPRTADIIPMEPGDIIGVAGN [E10I],2.99
10,YAHQPRTADPIPMEPGDIIGVAGN [E10P],3.66
11,YAHQPRTADNIPMEPGDIIGVAGN [E10N],3.73
12,YAHQPRTADHIPMEPGDIIGVAGN [E10H],3.33
13,YAHQPRTADFIPMEPGDIIGVAGN [E10F],3.14
14,YAHQPRTADLIPMEPGDIIGVAGN [E10L],3.56
15,YAHQPRTADTIPMEPGDIIGVAGN [E10T],3.66
16,YAHQPRTADSIPMEPGDIIGVAGN [E10S],3.74
17,YAHQPRTADMIPMEPGDIIGVAGN [E10M],3.44
18,YAHQPRTADKIPMEPGDIIGVAGN [E10K],2.9
19,YAHQPRTADYIPMEPGDIIGVAGN [E10Y],3.06
20,YAHQPRTADRIPMEPGDIIGVAGN [E10R],2.96
21,YAHQPRTADWIPMEPGDIIGVAGN [E10W],2.23
22,YAHQPRTADCIPMEPGDIIGVAGN [E10C],3.25
23,YAHQPRTADAIPMEPGDIIGVAGN [E10A],3.67
24,YAHQPRTADVIPMEPGDIIGVAGN [E10V],3.37

row,Variant,protein stability index
1,YAHQPRTADDIPMEPGDIIGVAGN [E10D],4.18
2,YAHQPRTADQIPMEPGDIIGVAGN [E10Q],3.08
3,YAHQPRTADGIPMEPGDIIGVAGN [E10G],2.53
4,YAHQPRTAAEIPMEPGDIIGVAGN [D9A],3.53
5,YAHQPRTAEEIPMEPGDIIGVAGN [D9E],4.09
6,YAHQPRTASEIPMEPGDIIGVAGN [D9S],3.67
7,YAHQPRTAHEIPMEPGDIIGVAGN [D9H],3.67
8,YAHQPRTAQEIPMEPGDIIGVAGN [D9Q],3.74
9,YAHQPRTATEIPMEPGDIIGVAGN [D9T],3.57
10,YAHQPRTAGEIPMEPGDIIGVAGN [D9G],3.52
11,YAHQPRTAIEIPMEPGDIIGVAGN [D9I],2.6
12,YAHQPRTAVEIPMEPGDIIGVAGN [D9V],2.52
13,YAHQPRTANEIPMEPGDIIGVAGN [D9N],3.65
14,YAHQPRTAYEIPMEPGDIIGVAGN [D9Y],2.62
15,YAHQPRTAMEIPMEPGDIIGVAGN [D9M],3.74
16,YAHQPRTAKEIPMEPGDIIGVAGN [D9K],3.51
17,YAHQPRTAWEIPMEPGDIIGVAGN [D9W],2.16
18,YAHQPRTAFEIPMEPGDIIGVAGN [D9F],2.68
19,YAHQPRTAPEIPMEPGDIIGVAGN [D9P],3.33
20,YAHQPRTAREIPMEPGDIIGVAGN [D9R],3.41
21,YAHQPRTALEIPMEPGDIIGVAGN [D9L],3.1
22,YAHQPRTACEIPMEPGDIIGVAGN [D9C],3.22
